Values quoted from earlier work as cited in paper PMC12525728, “Safety, Pharmacokinetics, Translational and Molecular Mechanistic Insights on the Prostate Cancer Recurrence Suppressor Pseurotin A” (Molecules, 2025).
Where two headings read alike, the source gives them in different places.

Parameters: method as in PMID 39441027
Conditions: cited from earlier work; for relative % reduction for LDL-C: propensity score matching analysis

B1: evolocumab (antibody, chains of the INN, looked up, V domains shown)
VH: EVQLVQSGAEVKKPGASVKVSCKASGYTLTSYGISWVRQAPGQGLEWMGWVSFYNGNTNYAQKLQGRGTMTTDPSTSTAYMELRSLRSDDTAVYYCARGYGMDVWGQGTTVTVSS
VL: ESALTQPASVSGSPGQSITISCTGTSSDVGGYNSVSWYQQHPGKAPKLMIYEVSNRPSGVSNRFSGSKSGNTASLTISGLQAEDEADYYCNSYTSTSMVFGGGTKLTVL
notes: FDA-approved marketed humanized monoclonal antibody that interferes with the PCSK9-LDLR PPI
- total cholesterol reduction (clinical trials, after 8 dosing weeks): −26.5%
- relative % reduction for LDL-C (females): −42.7%
- relative % reduction for LDL-C (males): −54.4%
